The values below come from PMC314469, “Protein Interaction Networks by Proteome Peptide Scanning” (PLoS Biology, 2004).

The target in the experiment is T1, Myo5 SH3 (MYO5_YEAST), Q04439.
T1 chain: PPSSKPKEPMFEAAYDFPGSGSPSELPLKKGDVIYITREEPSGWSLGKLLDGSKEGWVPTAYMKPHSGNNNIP
Nature of the experiment: SPOT array.
As for QPQHLPPPPPPRAQ [YOR329C 661-674], the normalised SPOT signal, Boehringer light units (BLU); mean over the file's lines of this peptide stood at 76200. SATGWLKPAVPIQW [YGL065C 374-387] showed a normalised SPOT signal, Boehringer light units (BLU); mean over the file's lines of this peptide of 94.6. In the case of QLVTLISPYDPNFK [YJR119C 479-492], the normalised SPOT signal, Boehringer light units (BLU); mean over the file's lines of this peptide was found to be 178.

Take SFDYLFHPFVPSTI [YPR039W 3-16]: the normalised SPOT signal, Boehringer light units (BLU); mean over the file's lines of this peptide stood at 23.1. With SELYYEGPETPTPS [YPL186C 118-131] the figure was 50.5; with SLISMETPEQPHQQ [YAL047C 546-559], 147; with QPAQFMPPQDPAAA [YIL109C 25-38], 134. On to REDAHEDPVSPKAG [YOL082W 127-140], for which the normalised SPOT signal, Boehringer light units (BLU); mean over the file's lines of this peptide is 145. With SLQQFYNPESPIQP [YOR155C 390-403], the normalised SPOT signal, Boehringer light units (BLU); mean over the file's lines of this peptide is 131. To SELTFIAPTQPVST [YPL101W 254-267] belongs 110. Turning to QPQAYHLPGNPYST [YNL278W 921-934], the normalised SPOT signal, Boehringer light units (BLU); mean over the file's lines of this peptide stood at 187. As for SANNYPFPQQPNGM [YNL124W 356-369], the normalised SPOT signal, Boehringer light units (BLU); mean over the file's lines of this peptide came to 79.6. Take QPTNFQYPPPPFGQ [YNL124W 379-392]: the normalised SPOT signal, Boehringer light units (BLU); mean over the file's lines of this peptide was found to be 224.

The molecule SPFSLFIPTIPATT [YNL043C 79-92] gave a normalised SPOT signal, Boehringer light units (BLU); mean over the file's lines of this peptide of 152. As to SPKKHVSPSRPPSV [YAL028W 272-285], the normalised SPOT signal, Boehringer light units (BLU); mean over the file's lines of this peptide turned out to be 1430. With RAAGMDVPIIPGIM [YGL125W 205-218] the figure was 98.2. With QPAQLQEPQEPLST [YMR148W 78-91], the normalised SPOT signal, Boehringer light units (BLU); mean over the file's lines of this peptide stood at 126.

SLVKFSSPMTPLLE [YHR072W 246-259] gave a normalised SPOT signal, Boehringer light units (BLU); mean over the file's lines of this peptide of 249.

The molecule SETSHHSPSAPFQR [YLL016W 216-229] showed a normalised SPOT signal, Boehringer light units (BLU); mean over the file's lines of this peptide of 257.

SLLIHSLPRKPLLM [YGL104C 357-370] returned a normalised SPOT signal, Boehringer light units (BLU); mean over the file's lines of this peptide of 314.

In turn, REVDLPIPAQPGPP [YDR236C 34-47] displayed a normalised SPOT signal, Boehringer light units (BLU); mean over the file's lines of this peptide of 114. With REFEFIIPVFPVIS [YDL233W 197-210] the figure was 163. SFRKLASPSNPNFF [YMR036C 409-422] came in with a normalised SPOT signal, Boehringer light units (BLU); mean over the file's lines of this peptide of 209. For the molecule RLLALFIPALPFII [YEL065W 193-206], the normalised SPOT signal, Boehringer light units (BLU); mean over the file's lines of this peptide was found to be 265. RLTNFEVPSLPTFH [YIL037C 447-460] returned a normalised SPOT signal, Boehringer light units (BLU); mean over the file's lines of this peptide of 319. With SAFPYVFPLPPWIP [YFL006W 181-194], the normalised SPOT signal, Boehringer light units (BLU); mean over the file's lines of this peptide turned out to be 13000.

On to SLFPLKTPISPGTS [YOR106W 114-127], for which the normalised SPOT signal, Boehringer light units (BLU); mean over the file's lines of this peptide was 239. For RPSKFFHPPIPHIP [YOR235W 5-18], the normalised SPOT signal, Boehringer light units (BLU); mean over the file's lines of this peptide was 777. To RLSLLRSPKAPDAH [YGL156W 915-928] belongs 442; to SPFTFLFPFLPTII [YER017C 223-236], 366. Molecule QLRSLFKPFGPILN [YBR212W 375-388] displayed a normalised SPOT signal, Boehringer light units (BLU); mean over the file's lines of this peptide of 370. The molecule RLFDLVKPKNPKFS [YLR086W 763-776] registered a normalised SPOT signal, Boehringer light units (BLU); mean over the file's lines of this peptide of 441. Take SENRLRTPLKPLVN [YGL021W 219-232]: the normalised SPOT signal, Boehringer light units (BLU); mean over the file's lines of this peptide amounted to 272.

SAYYLGLPVTPEDM [YOL057W 181-194] had a normalised SPOT signal, Boehringer light units (BLU); mean over the file's lines of this peptide of 215. SLAVYNIPLFPDDP [YLL002W 276-289]: the normalised SPOT signal, Boehringer light units (BLU); mean over the file's lines of this peptide was 91.7. In the case of RFHVFSEPILPSVA [YOR160W 693-706], the normalised SPOT signal, Boehringer light units (BLU); mean over the file's lines of this peptide was determined as 158. The molecule SFTRMPLPTPPIEG [YGL235W 82-95] had a normalised SPOT signal, Boehringer light units (BLU); mean over the file's lines of this peptide of 287. Molecule SFVHLTEPSQPLSD [YOR032C 362-375] registered a normalised SPOT signal, Boehringer light units (BLU); mean over the file's lines of this peptide of 99.7.

Consider SENYLVKPTIPGTT [YDL035C 918-931], for which the normalised SPOT signal, Boehringer light units (BLU); mean over the file's lines of this peptide worked out at 61.5. SLSALVGPVIPHTI [YMR177W 252-265] had a normalised SPOT signal, Boehringer light units (BLU); mean over the file's lines of this peptide of 28.4.

Molecule SFTPFNRPSDPSNG [YPL066W 70-83] had a normalised SPOT signal, Boehringer light units (BLU); mean over the file's lines of this peptide of 208. RPQWLSYPEQPLNS [YBL088C 912-925] showed a normalised SPOT signal, Boehringer light units (BLU); mean over the file's lines of this peptide of 241. Regarding RLWLYAAPKRPKTF [YMR156C 129-142], the normalised SPOT signal, Boehringer light units (BLU); mean over the file's lines of this peptide came to 845. Take SFRELWQPVDPSRE [YLR301W 124-137]: the normalised SPOT signal, Boehringer light units (BLU); mean over the file's lines of this peptide came to 97.3. Molecule REASLDIPYKPIIA [YFL011W 32-45] registered a normalised SPOT signal, Boehringer light units (BLU); mean over the file's lines of this peptide of 176. The molecule SPKFLNSPDLPERT [YDL225W 441-454] displayed a normalised SPOT signal, Boehringer light units (BLU); mean over the file's lines of this peptide of 183. Turning to SLDNFYNPLGPEDR [YNR012W 89-102], the normalised SPOT signal, Boehringer light units (BLU); mean over the file's lines of this peptide stood at 143. For RLQKLDDPKSPYQS [YDL205C 162-175], the normalised SPOT signal, Boehringer light units (BLU); mean over the file's lines of this peptide was found to be 127.

The molecule SFVGFPKPLLPRNH [YHR082C 909-922] gave a normalised SPOT signal, Boehringer light units (BLU); mean over the file's lines of this peptide of 205. On to SASTMAAPVHPQQQ [YMR002W 21-34], for which the normalised SPOT signal, Boehringer light units (BLU); mean over the file's lines of this peptide came to 164. As to RPPSHSAPYIPRSS [YDR132C 184-197], the normalised SPOT signal, Boehringer light units (BLU); mean over the file's lines of this peptide was 47400. SLTSLPPPPPPQFS [YPL014W 217-230] registered a normalised SPOT signal, Boehringer light units (BLU); mean over the file's lines of this peptide of 7260. For RLNSFAPPPNPYAT [YDL195W 847-860], the normalised SPOT signal, Boehringer light units (BLU); mean over the file's lines of this peptide was found to be 274. In the case of SAENLIQPTAPIRD [YIR029W 44-57], the normalised SPOT signal, Boehringer light units (BLU); mean over the file's lines of this peptide was 56.4.
